Where “and” joins values, the source holds several entries; their conditions need not be identical. Equal values may be shown once.
Experiments:
[1] = system: GFP^2-Pflu-H1-RLuc2 fusion protein
[2] = system: GFP^2-Pflu-H2-RLuc2 fusion protein
[3] = system: GFP^2-Pflu-H3-RLuc2 fusion protein
[4] = system: GFP^2-Pflu-H4-RLuc2 fusion protein
[5] = system: GFP^2-Pflu1-RLuc2 fusion protein (Pflu sensor 1)
[6] = system: GFP^2-Pflu2-RLuc2 fusion protein (Pflu sensor 2)
[7] = system: GFP^2-Pflu3-RLuc2 fusion protein (Pflu sensor 3)
[8] = system: GFP^2-plas1-RLuc2 fusion protein (BRET^2 plasmin sensor)

In the case of “crude bacterial protease from Pseudomonas fluorescens strain 65”, the “BRET^2 response to 1 nM bacterial protease in buffer, 10 minutes” value (“BRET^2 response … 10 minutes” for short) [1] is reported as 49.5%, the Bacterial protease response (%), BRET^2, 1 nM in UHT milk [1] is reported as 6.7% and the Selectivity (ratio of Bacterial protease response to Plasmin response), UHT milk [1] is reported as 1.3. For the same substance, the “BRET^2 response … 10 minutes” value [2] was 31.9%, the Bacterial protease response (%), BRET^2, 1 nM in UHT milk [2] was 6.6% and the Selectivity (ratio of Bacterial protease response to Plasmin response), UHT milk [2] was 0.8. The “BRET^2 response … 10 minutes” value [3] was 89.7%, the Bacterial protease response (%), BRET^2, 1 nM in UHT milk [3] was 36.3% and the “More responsive to 1 nM bacterial protease compared to Pflu H1 sensor, buffer” value [3] was 82%. The “More responsive to 1 nM bacterial protease compared to Pflu H2 sensor, buffer” value [3] was 182%, the “More responsive to 1 nM bacterial protease compared to Pflu H4 sensor, buffer” value [3] was 39% and the Selectivity (ratio of Bacterial protease response to Plasmin response), UHT milk [3] was 40.3. For the same substance, the Selectivity for bacterial protease over bovine plasmin, protease concentration by BSA standard [3] was 32 fold, the Selectivity for bacterial protease over bovine plasmin, raw milk [3] was 376 fold and the “BRET^2 response … 10 minutes” value [4] was 64.5%. The Bacterial protease response (%), BRET^2, 1 nM in UHT milk [4] was 17.1%, the Selectivity (ratio of Bacterial protease response to Plasmin response), UHT milk [4] was 2.7 and the “Reduction in the BRET ratio, 1 nM protease, UHT milk, 10 minutes” value [5] was 80.6% reduction in the BRET ratio with strain 65 bacterial proteases. For the same substance, the “Reduction in the BRET ratio, 1 nM protease, buffer, 10 minutes” value [5] was 95% reduction in the BRET ratio, the Selectivity for bacterial protease over bovine plasmin [5] was 238 fold and the Selectivity for bacterial protease over bovine plasmin, protease concentration by BSA standard [5] was 20 fold. The Selectivity for bacterial protease over human plasmin [5] was 174 fold, the Selectivity for bacterial protease over human plasmin, protease concentration by BSA standard [5] was 15 fold and the “Sensitivity to bacterial proteases relative to the plasmin sensor, raw milk, 10 minute incubation” value [5] was 10× more sensitive. The Linear range (10%-90% BRET^2 response), 50% full fat UHT milk, protease concentration by BSA standard [6] was 6.7 nM and 13.8 nM, the Selectivity for bacterial protease over human plasmin [6] was 353 fold and the Selectivity for bacterial protease over human plasmin, protease concentration by BSA standard [6] was 30 fold. The Selectivity for bacterial protease over human plasmin [7] was 563 fold, the Selectivity for bacterial protease over human plasmin, protease concentration by BSA standard [7] was 48.5 fold and the Linear range (10%-90% BRET^2 response), 50% full fat UHT milk [8] was 10 nM and 90 nM. The Linear range (10%-90% BRET^2 response), 50% full fat UHT milk, protease concentration by BSA standard [8] was 116 nM and 1040 nM, the Selectivity for bacterial protease over bovine plasmin [8] was 2 fold and the Selectivity for bacterial protease over bovine plasmin, protease concentration by BSA standard [8] was 0.2 fold. For the same substance, the Selectivity for bacterial protease over human plasmin [8] was 0.1 fold and the Selectivity for bacterial protease over human plasmin, protease concentration by BSA standard [8] was 0.01 fold.
For “crude bacterial protease from Pseudomonas fluorescens strain 117”, the “Reduction in the BRET ratio, 1 nM protease, UHT milk, 10 minutes” value [5] was 71.2% reduction with the bacterial protease from strain 117 and the “Reduction in the BRET ratio, 1 nM protease, buffer, 10 minutes” value [5] was 95% reduction in the BRET ratio.
